Measured values reported in patent US20040038369A1, “Airway-specific trypsin-like enzymes and method of using the same” (priority 2000, published 2004).

What was measured:
[1] = molecular target: EGF antigen on the surface of the NCI-H292 cell membrane (proEGF) (human) (UniProt P01133); assay: flow cytometry on NCI-H292 cells, control IgG1 1 µg, FITC secondary
[2] = molecular target: EGF antigen on the surface of the NCI-H292 cell membrane (proEGF) (human) (UniProt P01133); assay: flow cytometry on NCI-H292 cells, control IgG1 1 µg, PerCP secondary

Chain of EGF antigen on the surface of the NCI-H292 cell membrane (proEGF) (human) (P01133 23-1207): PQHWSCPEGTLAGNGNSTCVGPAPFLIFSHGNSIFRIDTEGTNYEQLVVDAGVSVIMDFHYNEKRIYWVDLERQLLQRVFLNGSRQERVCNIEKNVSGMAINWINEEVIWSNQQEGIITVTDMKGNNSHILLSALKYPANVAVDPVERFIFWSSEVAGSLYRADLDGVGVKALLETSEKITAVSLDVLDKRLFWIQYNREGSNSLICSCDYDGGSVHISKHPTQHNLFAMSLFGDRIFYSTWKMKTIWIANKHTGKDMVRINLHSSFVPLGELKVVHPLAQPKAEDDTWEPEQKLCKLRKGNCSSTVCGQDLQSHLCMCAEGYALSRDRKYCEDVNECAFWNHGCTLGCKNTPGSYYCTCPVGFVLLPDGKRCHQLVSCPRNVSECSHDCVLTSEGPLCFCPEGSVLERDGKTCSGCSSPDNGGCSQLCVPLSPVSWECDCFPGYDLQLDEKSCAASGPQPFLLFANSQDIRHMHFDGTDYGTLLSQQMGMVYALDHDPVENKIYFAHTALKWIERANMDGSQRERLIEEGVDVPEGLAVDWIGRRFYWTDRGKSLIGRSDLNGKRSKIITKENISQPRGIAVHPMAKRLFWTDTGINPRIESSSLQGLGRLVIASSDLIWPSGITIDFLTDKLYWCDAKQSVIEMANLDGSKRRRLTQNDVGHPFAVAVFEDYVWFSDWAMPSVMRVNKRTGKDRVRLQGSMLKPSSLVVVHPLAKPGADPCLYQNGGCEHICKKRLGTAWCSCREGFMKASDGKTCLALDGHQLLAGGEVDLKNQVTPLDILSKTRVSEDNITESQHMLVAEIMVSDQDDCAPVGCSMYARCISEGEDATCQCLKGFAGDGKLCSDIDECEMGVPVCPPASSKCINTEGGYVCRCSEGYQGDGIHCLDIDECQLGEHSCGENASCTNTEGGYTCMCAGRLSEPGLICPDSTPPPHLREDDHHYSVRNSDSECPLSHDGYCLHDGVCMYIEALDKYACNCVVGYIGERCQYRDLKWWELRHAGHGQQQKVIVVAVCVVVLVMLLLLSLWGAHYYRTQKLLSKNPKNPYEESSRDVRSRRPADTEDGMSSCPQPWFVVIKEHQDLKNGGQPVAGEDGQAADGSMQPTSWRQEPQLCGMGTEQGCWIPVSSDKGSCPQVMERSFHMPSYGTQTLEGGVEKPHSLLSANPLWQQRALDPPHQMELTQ

average fluorescence intensity (back ground) [1]: 4.62
average fluorescence intensity (back ground) [2]: 8.44
Substance: normal mouse IgG1 (produced by R & D Corp.) (antibody)
